{"source": "patent US7943340B2", "about": "“Fungal dipeptidyl peptidase IV (DPPIV) enzyme for reagent use” (priority 2003, dated 2011)", "molecules": {"B1": {"name": "ruLAP2: T. rubrum leucine aminopeptidase, 495 amino acid residues (SEQ ID NO: 3) (protein, listed as Trichophyton rubrum)", "chain": "MKSQLLSLAVAVTTISQGVVGQEPFGWPFKPMVTQDDLQNKIKLKDIMAGVEKLQSFSDAHPEKNRVFGGNGHKDTVEWIYNEIKATGYYDVKKQEQVHLWSHAEAALNANGKDLKASAMSYSPPASKIMAELVVAKNNGCNATDYPANTQGKIVLVERGVCSFGEKSAQAGDAKAAGAIVYNNVPGSLAGTLGGLDKRHVPTAGLSQEDGKNLATLVASGKIDVTMNVISLFENRTTWNVIAETKGGDHNNVIMLGAHSDSVDAGPGINDNGSGSIGIMTVAKALTNFKLNNAVRFAWWTAEEFGLLGSTFYVNSLDDRELHKVKLYLNFDMIGSPNFANQIYDGDGSAYNMTGPAGSAEIEYLFEKFFDDQGIPHQPTAFTGRSDYSAFIKRNVPAGGLFTGAEVVKTPEQVKLFGGEAGVAYDKNYHRKGDTVANINKGAIFLNTRAIAYAIAEYARSLKGFPTRPKTGKRDVNPQYSKMPGGGCGHHTVFM"}}, "key": {"[1]": {"tested_on": "Ala-proNPY", "assay": "Digestion of Ala-proNPY with ruLAP2", "format": "biochemical", "conditions": "overnight 37° C.", "method": "The digested material was isolated by RP-HPLC and characterized by ESI-MS. […] The same result is obtained at an 1:[…] ratio. Digestion halts when the enzyme reaches a Xaa-Pro-motif, which in case of proNPY is Tyr-Pro. Conditions of incubation were the same as for Gly-Ser-proNPY."}, "[2]": {"tested_on": "denatured casein", "assay": "Digestion of full-length polypeptide chain (denatured casein)", "format": "biochemical", "conditions": "partially purified, in the presence of a trypsin-like endoprotease from the P. pastoris expression system"}, "[3]": {"tested_on": "gliadin 14 mer PQPQLPYPQPQLPY", "format": "biochemical, wheat", "conditions": "4 h, 37° C., 1 mM CoCl2, pH7.2"}, "[4]": {"tested_on": "gliadin 33 mer", "assay": "Digestion of gliadin 33 mer (RP-HPLC, ESI-MS)", "format": "biochemical, wheat", "conditions": "within 4 h"}, "[5]": {"assay": "Aminopeptidase activity assay with fluorogenic aminoacyl-AMC substrates", "format": "biochemical", "method": "(§1) Aminopeptidase activity was determined using different fluorogenic aminoacyl-4-methylcoumaryl-7-amide derivatives of peptides and the internally quenched fluorogenic substrate Lys(Abz)-Pro-Pro-pNA for specific determination of aminopeptidase P activity. Stockel et al, Adv Exp. Med. Biol. 421:31-35 (1997). All substrates were from Bachem (Bubendorf, Switzerland). Substrate stock solutions were prepared at 0.1 M according to the recommendations of the manufacturer and stored at −20° C. The reaction mixture contained a concentration of 5 mM substrate and enzyme preparation (between 56 and 2,662 ng per assay depending on the cleavage activity of each enzyme for the substrates) in 25 μl of 50 mM Tris-HCl buffer adjusted at the optimal pH for each LAP (between 7 and 8). After incubation at 37° C. for 60 min, the reaction was terminated by adding 5 μl of glacial acetic acid and the reaction mixture was diluted with 3.5 ml of water. The released 7-amino-4-methylcoumarin (AMC) was measured using a spectrofluorophotometer (Perkin Elmer LS-5 fluorometer, Zurich, Switzerland) at an excitation wavelength of 370 nm and an emission wavelength of 460 nm. A standard curve made with synthetic AMC was used to assess the released AMC. The released diprolyl-p-nitroanilide was measured at an excitation wavelength of 310 nm and an emission wavelength of 410 nm. The LA activities were expressed in mnoles of released AMC or pNA/min/μg protein.\nTable 15 details the hydrolytic activity of different LAPs toward various aminoacyl-MCA comparison (%) to Leu-MCA used as a standard."}, "[6]": {"assay": "Aminopeptidase P activity assay", "format": "biochemical", "conditions": "substrate Lys(Abz)-Pro-Pro-pNA, 5 mM, 37° C., 60 min", "method": "as §1"}}, "note": "“Also recorded” adds a separate entry of the source.", "data": [{"molecule": "B1", "values": [{"measurement": "removal of N-terminal alanine from Ala-proNPY", "setting": "[1]", "result": "almost totally removed"}, {"measurement": "digestion of denatured casein", "setting": "[2]", "result": "sequentially digest a full-length polypeptide chain, such as denatured casein"}, {"measurement": "digestion of the 14 mer", "setting": "[3]", "result": "not digested; also recorded: results only in the cleavage of the N-terminal Proline"}, {"measurement": "partial degradation of the 33 mer", "setting": "[4]", "result": "less than 50%"}, {"measurement": "hydrolysis of Leu-AMC", "setting": "[5]", "result": "efficiently hydrolyzed"}, {"measurement": "hydrolytic activity toward Ala-AMC in comparison (%) to Leu-MCA", "setting": "[5]; substrate Ala-AMC, 5 mM, 37° C., 60 min", "result": 33.3, "unit": "%"}, {"measurement": "hydrolytic activity toward Arg-AMC in comparison (%) to Leu-MCA", "setting": "[5]; substrate Arg-AMC, 5 mM, 37° C., 60 min", "result": 1.9, "unit": "%"}, {"measurement": "hydrolytic activity toward Asn-AMC in comparison (%) to Leu-MCA", "setting": "[5]; substrate Asn-AMC, 5 mM, 37° C., 60 min", "result": 114.6, "unit": "%"}, {"measurement": "hydrolytic activity toward Asp-AMC in comparison (%) to Leu-MCA", "setting": "[5]; substrate Asp-AMC, 5 mM, 37° C., 60 min", "result": 3.8, "unit": "%"}, {"measurement": "hydrolytic activity toward Cys-AMC in comparison (%) to Leu-MCA", "setting": "[5]; substrate Cys-AMC, 5 mM, 37° C., 60 min", "result": 14.9, "unit": "%"}, {"measurement": "hydrolytic activity toward Gln-AMC in comparison (%) to Leu-MCA", "setting": "[5]; substrate Gln-AMC, 5 mM, 37° C., 60 min", "result": 49.9, "unit": "%"}, {"measurement": "hydrolytic activity toward Glu-AMC in comparison (%) to Leu-MCA", "setting": "[5]; substrate Glu-AMC, 5 mM, 37° C., 60 min", "result": 3.7, "unit": "%"}, {"measurement": "hydrolytic activity toward Gly-AMC in comparison (%) to Leu-MCA", "setting": "[5]; substrate Gly-AMC, 5 mM, 37° C., 60 min", "result": 3.3, "unit": "%"}, {"measurement": "hydrolytic activity toward Gly-Pro-AMC in comparison (%) to Leu-MCA", "setting": "[5]; substrate Gly-Pro-AMC, 5 mM, 37° C., 60 min", "result": 7.2, "unit": "%"}, {"measurement": "hydrolytic activity toward His-AMC in comparison (%) to Leu-MCA", "setting": "[5]; substrate His-AMC, 5 mM, 37° C., 60 min", "result": 0.6, "unit": "%"}, {"measurement": "hydrolytic activity toward Hyp-AMC in comparison (%) to Leu-MCA", "setting": "[5]; substrate Hyp-AMC, 5 mM, 37° C., 60 min", "result": 14.2, "unit": "%"}, {"measurement": "hydrolytic activity toward Ile-AMC in comparison (%) to Leu-MCA", "setting": "[5]; substrate Ile-AMC, 5 mM, 37° C., 60 min", "result": 6.4, "unit": "%"}, {"measurement": "hydrolytic activity toward Leu-AMC in comparison (%) to Leu-MCA used as a standard", "setting": "[5]; substrate Leu-AMC (standard), 5 mM, 37° C., 60 min", "result": 100.0, "unit": "%"}, {"measurement": "hydrolytic activity toward Lys-AMC in comparison (%) to Leu-MCA", "setting": "[5]; substrate Lys-AMC, 5 mM, 37° C., 60 min", "result": 4.6, "unit": "%"}, {"measurement": "hydrolytic activity toward Met-AMC in comparison (%) to Leu-MCA", "setting": "[5]; substrate Met-AMC, 5 mM, 37° C., 60 min", "result": 119.7, "unit": "%"}, {"measurement": "hydrolytic activity toward Phe-AMC in comparison (%) to Leu-MCA", "setting": "[5]; substrate Phe-AMC, 5 mM, 37° C., 60 min", "result": 17.1, "unit": "%"}, {"measurement": "hydrolytic activity toward Pro-AMC in comparison (%) to Leu-MCA", "setting": "[5]; substrate Pro-AMC, 5 mM, 37° C., 60 min", "result": 21.4, "unit": "%"}, {"measurement": "hydrolytic activity toward Pyr-AMC in comparison (%) to Leu-MCA", "setting": "[5]; substrate Pyr-AMC, 5 mM, 37° C., 60 min", "result": 0.0, "unit": "%"}, {"measurement": "hydrolytic activity toward Ser-AMC in comparison (%) to Leu-MCA", "setting": "[5]; substrate Ser-AMC, 5 mM, 37° C., 60 min", "result": 26.1, "unit": "%"}, {"measurement": "hydrolytic activity toward Thr-AMC in comparison (%) to Leu-MCA", "setting": "[5]; substrate Thr-AMC, 5 mM, 37° C., 60 min", "result": 0.9, "unit": "%"}, {"measurement": "hydrolytic activity toward Val-AMC in comparison (%) to Leu-MCA", "setting": "[5]; substrate Val-AMC, 5 mM, 37° C., 60 min", "result": 4.8, "unit": "%"}, {"measurement": "hydrolytic activity toward Lys(Abz) Pro-PropNA in comparison (%) to Leu-MCA", "setting": "[6]", "result": 0.0, "unit": "%"}]}]}
